In article PMC10747430, “^99mTc-Labeled Cyclic Peptide Targeting PD-L1 as a Novel Nuclear Imaging Probe” (Pharmaceutics, 2023):

Key:
Serum protein binding = type: in vitro ADME; details: human serum (diluted 5x), 37 °C, size-exclusion radio-HPLC, n = 3
Procedure: (§1) The stability of [^99mTc]Tc-iPD-L1 and [^99mTc]Tc-WL12 was evaluated by diluting the samples in human serum (5x). The radiopharmaceuticals (n = 3) were heated at 37 °C and analyzed at 0.5, 3, and 24 h for radiochemical purity by size-exclusion radio-HPLC (ProteinPak 300SW, Waters Corporation, Milford, CT, USA).
(§2) The radioactivity from [^99mTc]Tc-iPD-L1 bound to serum proteins was 1.3 ± 0.8% at 30 min, 3.2 ± 1.3% at 3 h, and 7.6 ± 1.9% at 24 h. High radiochemical stability (>90% at 24 h) was also observed. In the case of [^99mTc]Tc-WL12, protein binding was 1.0 ± 0.4% at 30 min, 3.3 ± 0.9% at 3 h, and 6.0 ± 1.3% at 24 h, with a radiochemical purity of >90% at 24 h. Therefore, there was no significant difference […] in protein binding and serum stability between the radiotracers.

Stability in human serum = type: in vitro ADME; details: human serum (diluted 5x), 37 °C, n = 3
Procedure: as §1, §2

[1] = test system: HCC827 cells (PD-L1 positive); assay: Cellular uptake and internalization, HCC827; type: cell-based, human; details: HCC827, 1 × 10^6 cells/tube, 7.4 kBq, 37 °C, 1 h, n = 3
Procedure: Human colorectal cancer HCT116 (PD-L1 positive: 45.1 nTPM), human lung cancer HCC827 (PD-L1 positive: 27.1 nTPM), and […] C6 glioma cells (PD-L1 negative control) were obtained from ATCC (Atlanta, GA, USA). FBS, RPMI, and cell culture medium were obtained from Bovine and Biology (CDMX, MX). Cells were cultured in RPMI medium (5% CO2; 100 µg/mL penicillin, 15% fetal bovine serum, and 100 µg/mL streptomycin; 37 °C).
Cells diluted in phosphate-buffered saline (PBS) (pH 7.4) (1 × 10^6 cells/tube) received three different treatments: (a) [^99mTc]Tc-iPD-L1 (7.4 kBq) (n = 3), (b) and [^99mTc]Tc-WL12 (7.4 kBq) (n = 3), and (c) ^99mTcO4Na (7.4 kBq) (n = 3). Cells were incubated with each treatment at 37 °C for one hour. After incubation, tubes were measured in a NaI(Tl) detector (NML Inc., Houston, TX, USA) to establish the initial or first activity (100%). The tubes were spun at 500 g for 10 min, rinsed once with PBS, and spun once more. The liquid was removed, and the activity in the button was determined, indicating the percentage of cellular uptake (surface uptake) regarding the initial or first activity. Acetic acid/0.5 M NaCl was added, the tubes were centrifuged, and the activity was measured. The liquid was removed, and activity in button activity represented the percentage of activity internalized by cells relative to uptake activity (internalization fraction of surface uptake). […]

[2] = biological target: T1, human recombinant PD-L1 protein (Homo sapiens, UniProt Q9NZQ7); assay: Radio-SDS-PAGE molecular recognition by PD-L1 protein; type: binding; details: radiopeptide (1 mg/mL) incubated with PD-L1 (200 µg/mL) 30 min at 37 °C; 15% SDS-PAGE, radio-TLC scan
T1 construct: purchased FineTest P6857
Procedure: SDS-PAGE gel electrophoresis was performed. Radioactivity distribution was determined using a radio-TLC scanner (Mini-Gita, 60–150 keV, BGO-Crystal, window 25 × 2 mm, thickness 5 mm, resolution optimized for Tc-99m; RayTest, Munich, Germany) to detect [^99mTc]Tc-iPD-L1 and [^99mTc]Tc-WL12 binding to PD-L1 protein.
Briefly, ^99mTc-labeled WL12 and iPD-L1 solutions (100 µL) (1 mg/mL peptide) were incubated with human recombinant PD-L1 protein (100 µL) (200 µg/mL; FineTest; Cat: P6857) (radiopeptide-PD-L1 interaction) or human integrin αVβ3 protein (100 µL) (negative control; 200 µg/mL) (Chemicom, Merck; Burlington, MA, USA) (radiopeptide-integrin interaction) for 30 min at 37 °C, after which the samples were diluted with Laemmli sample buffer (containing 10% SDS, Tris-Cl 125 mM, pH = 6.8, 12.5% glycerol and 0.005% bromophenol blue after dye) to give final protein concentrations of 25 µg/mL. […] Finally, the radioactivity distribution on the gels was scanned using a radio-TLC detector to determine the percentage of [^99mTc]Tc-iPD-L1 or [^99mTc]Tc-WL12 radioactivity associated with proteins.
In vitro-specific recognition of [^99mTc]Tc-iPD-L1 and [^99mTc]Tc-WL12 by the PD-L1 protein was performed using a combination of radio-TLC and SDS-PAGE (radio-SDS-PAGE). […] Therefore, the radioactivity associated with free peptides is in the front of the gel plate (around 60–70 mm). […]

T1 sequence (Q9NZQ7 19-290): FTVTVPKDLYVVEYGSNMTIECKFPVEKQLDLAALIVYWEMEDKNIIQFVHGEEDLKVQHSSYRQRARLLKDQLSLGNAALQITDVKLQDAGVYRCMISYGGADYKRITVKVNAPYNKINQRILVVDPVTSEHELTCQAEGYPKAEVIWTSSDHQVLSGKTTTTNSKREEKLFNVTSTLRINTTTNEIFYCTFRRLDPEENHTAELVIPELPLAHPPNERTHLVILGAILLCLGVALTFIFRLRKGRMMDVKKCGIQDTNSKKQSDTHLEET

## CCCC[C@H]1C(=O)N(C)[C@@H](CCCC)C(=O)N[C@@H](CCCNC(=O)c2ccc(NN)nc2)C(=O)N[C@H](C(=O)NCC(N)=O)CSCC(=O)N[C@@H](Cc2ccc(O)cc2)C(=O)N(C)[C@@H](C)C(=O)N[C@@H](CC(N)=O)C(=O)N2CCC[C@H]2C(=O)N[C@@H](Cc2c[nH]cn2)C(=O)N[C@@H](CC(C)C)C(=O)N2C[C@H](O)C[C@H]2C(=O)N[C@@H](Cc2c[nH]c3ccccc23)C(=O)N[C@@H](CO)C(=O)N[C@@H](Cc2cn(C)c3ccccc23)C(=O)N1C [[^99mTc]Tc-WL12, metal not drawn]
Serum protein binding; 30 min
  radioactivity bound to serum proteins at 30 min: 1.0 ± 0.4%
Serum protein binding; 3 h
  radioactivity bound to serum proteins at 3 h: 3.3 ± 0.9%
Serum protein binding; 24 h
  radioactivity bound to serum proteins at 24 h: 6.0 ± 1.3%
Stability in human serum; 30 min, 3 h and 24 h, size-exclusion radio-HPLC
  stability in human serum: remained stable
Stability in human serum; 24 h, size-exclusion radio-HPLC (ProteinPak 300SW), read-out: radiochemical stability / radiochemical purity in human serum at 24 h
  remaining at 24 h: > 90%
[1]
  uptake and internalization compared to C6 cells (PD-L1 negative): significantly higher
[2]
  radioactivity detected at the distance associated with the PD-L1 protein: 14%
